Measured values published in article PMC6237275.

Target: His–CtBP1 (UniProt Q13363)
Test: SEC

- stoichiometry N: 2
Substance: His–CtBP1 (from UniProt Q13363 1-440) (natural protein)
